In one series the target is T1, SUC11 (Chardonnay) (Vitis vinifera, UniProt Q9SQK6).
T1 construct: gene VvSUC11; full length, 500 residues, one site different from Thompson Seedless; expressed in yeast SUSY7/ura3
T1 sequence (Q9SQK6 1-501): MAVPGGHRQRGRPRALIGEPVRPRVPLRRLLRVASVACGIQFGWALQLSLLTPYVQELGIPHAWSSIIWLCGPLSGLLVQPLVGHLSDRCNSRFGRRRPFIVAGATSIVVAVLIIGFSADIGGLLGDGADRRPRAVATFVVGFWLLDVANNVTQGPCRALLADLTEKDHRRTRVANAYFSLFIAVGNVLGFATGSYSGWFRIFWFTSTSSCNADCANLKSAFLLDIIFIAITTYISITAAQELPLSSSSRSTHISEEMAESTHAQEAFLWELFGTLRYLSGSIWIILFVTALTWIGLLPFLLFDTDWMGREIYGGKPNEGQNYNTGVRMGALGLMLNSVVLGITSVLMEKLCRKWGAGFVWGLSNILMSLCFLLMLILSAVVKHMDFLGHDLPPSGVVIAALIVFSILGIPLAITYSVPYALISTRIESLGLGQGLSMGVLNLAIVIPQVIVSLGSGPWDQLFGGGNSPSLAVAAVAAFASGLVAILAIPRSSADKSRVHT
In words: sucrose transport in yeast SUSY7/ura3. The class given is cell-based. The following applies: 0.1, 0.2 and 2 mM sucrose.

Substrate in series [1]: OC[C@H]1O[C@@](CO)(O[C@H]2O[C@H](CO)[C@@H](O)[C@H](O)[C@H]2O)[C@@H](O)[C@@H]1O
In words: cells, lysate or membranes. The format is cell-based, Vitis vinifera. The following applies: pH 5.0, 30 °C, 10 mM glucose, 20 min, expressed alone, labelled compound.

As to `OC[C@H]1O[C@@](CO)(O[C@H]2O[C@H](CO)[C@@H](O)[C@H](O)[C@H]2O)[C@@H](O)[C@@H]1O` [sucrose], at SUC11 (Chardonnay), the sucrose transport ability result is on record as “did not affect the structure (Figure S5a) or sucrose transport ability”.

B1: VvSUC11 (Vitis vinifera) (protein)
chain: MAVPGGHRQRGRPRALIGEPVRPRVPLRRLLRVASVACGIQFGWALQLSLLTPYVQELGIPHAWSSIIWLCGPLSGLLVQPLVGHLSDRCNSRFGRRRPFIVAGATSIVVAVLIIGFSADIGGLLGDGADRRPRAVATFVVGFWLLDVANNVTQGPCRALLADLTEKDHRRTRVANAYFSLFIAVGNVLGFATGSYSGWFRIFWFTSTSSCNADCANLKSAFLLDIIFIAITTYISITAAQELPLSSSSRSTHISEEMAESTHAQEAFLWELFGTLRYLSGSIWIILFVTALTWIGLLPFLLFDTDWMGREIYGGKPNEGQNYNTGVRMGALGLMLNSVVLGITSVLMEKLCRKWGAGFVWGLSNILMSLCFLLMLILSAVVKHMDFLGHDLPPSGVVIAALIVFSILGIPLAITYSVPYALISTRIESLGLGQGLSMGVLNLAIVIPQVIVSLGSGPWDQLFGGGNSPSLAVAAVAAFASGLVAILAIPRSSADKSRVHT
notes: full length, 500 residues (printed), leaf cDNA in pDR196, expressed in yeast SUSY7/ura3
On to B1, for which the Km (usually the substrate concentration at which the rate is half of its maximum) in series [1] is 354 µM.

B2: VvSUC27 (Vitis vinifera) (protein)
chain: MELAKPSSVFAIQDHQSSSPPTPIWKTVVVASIAAGIQFGWALQLSLLTPYVQLLGIPHKWAAFIWLCGPISGMIVQPVVGYHSDRCTSRFGRRRPFIAAGAVLVAIAVFLIGYAADIGRVSGDPLHNTIKTRAVAVFVVGFWILDVANNMLQGPCRALLADLSGTSARRTRTANALYSFFMAVGNVLGYAAGSFSKLHKMFPFARTQACDLYCANLKSCFFLSIALLLILTIIAFATVHETPLNRADIAVVEAGQPFYSQMMNAFRQLRRPMWVLLLVTCLNWIGWFPFLLFDTDWMGREVYGGTVGEGPRGRLYDLGVRAGSLGLMLNSVVLGLMSLGVEFFGRGVGGVKRLWGGVNFLLALCLALTVLVSKLAASWRHSLGGELHPPPIGIKAGALSLFAVMGVPLAITYSIPFALASIFCHSSGAGQGLSLGVLNLAIVVPQMMVSVASGPWDARFGGGNLPAFVVGAFAAALNGVLALTMLPAPPPDVPNTKDERTQPSS
notes: full length, 504 residues (printed), leaf cDNA in pDR196, expressed in yeast SUSY7/ura3
Regarding B2, the Km in series [1] was found to be 3064 µM.

B3: VvSUC12 (Vitis vinifera) (protein)
chain: MPETMDAPSIRVPYKNLKQAEVELVAADEPRHGADLNSRVPNGTSDPSSSPSSIPHPPKHGGLRTLILSCMIAAGVQFGWALQLSLLTPYIQTLGIEHAFSSFIWLCGPITGLVVQPCVGIWSDKCSSKYGRRRPFILAGSLMISVAVTIIGFSADIGYLLGDTNMDCRKFKGTRTWAAIIFVLGFWMLDLANNTVQGPARALLADLSGPDQRNSANAIFCSWMAVGNILGFSAGASGHWHRWFPFLLNKACCEACGNLKAAFLIAVVFLTLCTLVTLYFAEEVPLMAYQPHHLSDSAPLLDNPQQIGFDNSKSKLDMSAVDNATGNNPESSYEINKNAKHLTPIVQEQNESFSDGPGAVLVNLLTSLRHLPPAMHSVLLVMALSWLSWFPFFLFDTDWMGREVYHGDPKGDESAVKAYDAGVREGAFGLLLNSVDLGISSFLIEPMCQRMGARLVWAMSNFIVFACMAGTAIISLVSVNEYITEGIQHAIGENRAIKIASLVVFALLGFPLSITYSVPFSITAELTADTGGGQGLAIGVLNLAIVIPQMIVSLGAGPWDALFGGGNIPAFVLAALFALAAGVIATLKLPNLSSSSYKSSGFHFGNFPASMR
notes: full length, 611 residues (printed), leaf cDNA in pDR196, expressed in yeast SUSY7/ura3
On to B3, for which, in series [1], the Km was found to be 943 µM.

For the origin of these results see publication PMC8584533, “Hetero/Homo-Complexes of Sucrose Transporters May Be a Subtle Mode to Regulate Sucrose Transportation in Grape Berries” (International Journal of Molecular Sciences, 2021).
